Results published in paper PMC5691656 (Viruses, 2017).
No end group written: not given here.

T1: Canarypox virus CNP058 lacking the C-terminal transmembrane domain (residues 1–143) (canarypox virus, UniProt Q6VZT9 1-143)
T1 sequence: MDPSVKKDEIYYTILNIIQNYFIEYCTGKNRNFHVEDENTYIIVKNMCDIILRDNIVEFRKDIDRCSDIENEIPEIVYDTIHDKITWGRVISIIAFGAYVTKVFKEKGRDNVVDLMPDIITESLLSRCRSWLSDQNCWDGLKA

B1: Gallus gallus Noxa BH3 domain peptide (peptide)
peptide: ERDAVAECALELRRIGDKADLQQKVL
notes: Noxa, Gallus gallus, BH3 domain peptide; source: synthetic peptide (Mimotopes)

Tests used:
CNP058 = CNP058 (Canarypox virus, UniProt Q6VZT9); experiment: biochemical; format: binding
Noxa BH3 (Homo sapiens) = Noxa BH3 (Homo sapiens) (UniProt Q13794); experiment: ITC; conditions: cited from earlier work
[1] = biological target: T1, Canarypox virus CNP058 lacking the …; experiment: ITC; conditions: both partners purified

Noxa BH3 (Homo sapiens), sequence (Q13794 18-43): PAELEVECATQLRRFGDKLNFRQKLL

Molecule | Kd [1] [nM] | also measured
PEVNEAIVRTIAAQLAEIGDQLDKQIKAKVVNDL [GG_Bid] | – | Kd (CNP058): 50 nM
FPV039 (from UniProt Q9J5G4) | – | Kd (Noxa BH3 (Homo sapiens)): 28 nM
PEVNEAIVRTIAAQLAEIGDQLDKQIKAKVVNDL [Gallus gallus Bid BH3 domain peptide (residues 77-110)] | 50 | –
EARTEVQIARKLQCIADQFHRLHIQR [Gallus gallus Bmf BH3 domain peptide (residues 135-160)] | 294 | –
B1 | 3280 | –
EEQWAREIGAQLRRMADDLNAQYERR [Homo sapiens Puma BH3 domain peptide (residues 130-155)] | 2480 | –
VPQDASTKKLSECLKRIGDELDSNMELQ [Homo sapiens Bax BH3 domain peptide (residues 50-77)] | 326 | –
